Measured values reported in patent publication US20080160008.

Tests used:
Aβ1-38 = Aβ1-38 (UniProt P05067)
[1] = target: Aβ1-42 (fresh, nonaggregated synthetic peptide, rPeptide) (UniProt P05067)
fibrillar Aβ1-42 = fibrillar Aβ1-42 (UniProt P05067)
Aβ1-40 = Aβ1-40 (UniProt P05067)
[2] = target: high-molecular-weight (MW) Aβ assemblies (UniProt P05067)
protofibrillar Aβ1-42 = protofibrillar Aβ1-42 (UniProt P05067)
Chain of protofibrillar Aβ1-42 (P05067 whole entry, looked up, tested part not stated): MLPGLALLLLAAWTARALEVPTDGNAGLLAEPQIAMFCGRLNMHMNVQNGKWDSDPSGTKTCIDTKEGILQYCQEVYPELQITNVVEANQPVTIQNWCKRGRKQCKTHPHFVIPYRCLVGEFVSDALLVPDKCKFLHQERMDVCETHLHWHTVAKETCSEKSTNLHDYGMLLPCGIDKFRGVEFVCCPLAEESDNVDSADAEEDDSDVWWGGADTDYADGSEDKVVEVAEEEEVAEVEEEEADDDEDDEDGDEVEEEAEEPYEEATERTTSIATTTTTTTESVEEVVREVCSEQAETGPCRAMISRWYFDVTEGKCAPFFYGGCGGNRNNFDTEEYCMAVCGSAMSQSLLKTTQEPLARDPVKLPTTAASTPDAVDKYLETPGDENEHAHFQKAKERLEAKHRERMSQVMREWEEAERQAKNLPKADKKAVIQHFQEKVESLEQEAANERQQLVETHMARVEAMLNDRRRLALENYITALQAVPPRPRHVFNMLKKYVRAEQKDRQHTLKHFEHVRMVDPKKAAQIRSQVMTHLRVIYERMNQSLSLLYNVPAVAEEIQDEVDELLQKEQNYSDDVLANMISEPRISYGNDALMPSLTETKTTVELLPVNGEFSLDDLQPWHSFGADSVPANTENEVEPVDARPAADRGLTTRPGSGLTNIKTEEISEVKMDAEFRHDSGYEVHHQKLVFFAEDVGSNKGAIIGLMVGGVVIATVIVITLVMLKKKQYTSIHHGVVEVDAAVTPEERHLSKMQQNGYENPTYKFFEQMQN

Chain of Aβ1-42 (fresh, nonaggregated synthetic peptide, rPeptide) (P05067 whole entry, looked up, tested part not stated): as above
Chain of fibrillar Aβ1-42 (P05067 whole entry, looked up, tested part not stated): as above
Chain of Aβ1-40 (P05067 whole entry, looked up, tested part not stated): as above
Chain of high-molecular-weight (MW) Aβ assemblies (P05067 whole entry, looked up): as the sequence (P05067 whole entry, looked up, tested part not stated) above
Chain of Aβ1-38 (P05067 whole entry, looked up, tested part not stated): as above

purified CatB from human liver (Sigma)
proteolytic products analyzed with SELDI-TOF mass spectrometry (Aβ1-38): even when Aβ1-40 was almost completely converted to Aβ1-38, no Aβ1-36 was generated from Aβ1-38 | SELDI-TOF mass spectrometry of cleavage at pH 7.0 [1]: At neutral pH (˜7.0), the ability of CatB to cleave Aβ, especially nonaggregated (fresh) Aβ, was markedly reduced | proteolytic products analyzed with SELDI-TOF mass spectrometry [1]: Incubating Aβ1-42 with CatB resulted in the dose-dependent generation of Aβ1-40, Aβ1-38, and Aβ1-33 through proteolytic cleavage at Val40-Ile41, Gly38-Gly39, and Gly33-Leu34 | western blot analysis of acid-urea gels [1]: The dose-dependent cleavage of Aβ1-42 was confirmed by western blot analysis of acid-urea gels | western blot of Tricine SDS-PAGE gels [1]: Levels of low-MW Aβ1-42 oligomers and monomers, detected with an antibody specific for Aβ1-42, were also reduced | SELDI-TOF mass spectrometry of cleavage at pH 7.0 (fibrillar Aβ1-42): protofibrillar/nonfibrillar Aβ oligomers and fibrillar Aβ1-42 preparations were cleaved by CatB even at neutral pH, resulting in the same truncated Aβ species observed at pH 6.0 | amount of fibrillar structures by electron microscopy (fibrillar Aβ1-42): incubation of fibrillar Aβ1-42 with CatB did reduce the amount of fibrillar structures | proteolytic products analyzed with SELDI-TOF mass spectrometry (Aβ1-40): Levels of Aβ1-40 were increased initially at lower doses (100-400 ng/ml), but decreased at higher doses (0.4-2.5 µg/ml) | western blot of Tricine SDS-PAGE gels [2]: Incubation of CatB induced a marked decrease in the amounts of high-molecular-weight (MW) Aβ assemblies | SELDI-TOF mass spectrometry of cleavage at pH 6.0 (protofibrillar Aβ1-42): at pH 6.0, were cleaved by CatB as efficiently as nonaggregated preparations, resulting in the same C-terminally-truncated peptides, Aβ1-40, Aβ1-38, and Aβ1-33 | SELDI-TOF mass spectrometry of cleavage at pH 7.0 (protofibrillar Aβ1-42): protofibrillar/nonfibrillar Aβ oligomers and fibrillar Aβ1-42 preparations were cleaved by CatB even at neutral pH, resulting in the same truncated Aβ species observed at pH 6.0
